Assays:
[1] = target: WT1 peptide (…; SEQ ID NO: 97) presented on peptide-pulsed T2 cells (UniProt P61769 21-119, limits assumed); assay: cell-based or functional assay
[2] = target: WT1 peptide (…; SEQ ID NO: 97) presented on peptide-pulsed T2 cells (UniProt P61769); assay: cell-based or functional assay; conditions: scale: nM
[3] = target: T1, WT1 (Wilms' tumor antigen-1) peptide on HLA-A*02:01 (human); assay: full-length, on cells
T1 peptide: YMLDLQPETT

B1: eJH30_WT1C_5 (TCR, V domains shown)
V domain 1: GENVEQHPSTLSVQEGDSAVIKCTYSDSASNYFPWYKQELGKGPQLIIDIRSNVGEKKDQRIAVTLNKTAKHFSLHITETQPEDSAVYFCAAGGRDDKIIFGKGTRLHILP
V domain 2: EPEVTQTPSHQVTQMGQEVILRCVPISNHLYFYWYRQILGQKVEFLVSFYNNEISEKSEIFDDQFSVERPDGSNFTLKIRSTKLEDSAMYFCASSERLGTMAYNSPLHFGNGTRLTVTE
With B1 the “EC50 (nM) of functional avidity: CD69 MFI of TCR+ JRT3 cells against WT1-pep concentration pulsed on T2 cells” value [1] was 51.9 nM.

B2: eJH30_WT1C_8 (TCR, V domains shown)
V domain 1: GQQLNQSPQSMFIQEGEDVSMNCTSSSIFNTWLWYKQEPGEGPVLLIALYKAGELTSNGRLTAQFGITRKDSFLNISASIPSDVGIYFCAGRGSQGNLIFGKGTKLSVKP
V domain 2: DTAVSQTPKYLVTQMGNDKSIKCEQNLGHDTMYWYKQDSKKFLKIMFSYNNKELIINETVPNRFSPKSPDKAHLNLHINSLELGDSAVYFCASSHWQETQYFGPGTRLLVLE
B2 was tested, and the “EC50 (nM) of functional avidity: CD69 MFI of TCR+ JRT3 cells against WT1-pep concentration pulsed on T2 cells” value [1] was 10.9 nM.

B3: eJH64_WT1C_6 (TCR, V domains shown)
Valpha: AQSVAQPEDQVNVAEGNPLTVKCTYSVSGNPYLFWYVQYPNRGLQFLLKYITGDNLVKGSYGFEAEFNKSQTSFHLKKPSALVSDSALYFCAVRDMRYGGATNKLIFGTGTLLAVQP
Vbeta: ETGVTQTPRHLVMGMTNKKSLKCEQHLGHNAMYWYKQSAKKPLELMFVYSLEERVENNSVPSRFSPECPNSSHLFLHLHTLQPEDSALYLCASSQDGLAGAASFNNEQFFGPGTRLTVL
In the case of B3, the EC50 of functional avidity: CD69 MFI of TCR+ cells against WT1 10mer peptide concentration pulsed on T2 cells [2] is reported as 0.7 and the EC50 of peptide [3] is reported as 0.7 nM.
